Experimental data reported in the supplement of paper PMC9170038.

Tested on: K4 kissing-loop RNA reporter
Assay: apparent KD of K4 kissing-loop reporter; higher = weaker reporter binding
Details: Eterna round: R107
Description: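 RNA-MaP round R107: designed RNA switches with theophylline, tryptophan, arginine or FMN aptamers are transcribed on-chip within common flanks. They are titrated with a labelled K4 kissing-loop RNA reporter in RNA-MaP buffer (100 mM Tris pH 7.5, 80 mM KCl, 4 mM MgCl2), without ligand or with the indicated ligand. Median apparent KD per design.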

[1] = input ligand: theophylline 20 uM
[2] = input ligand: tryptophan 2.4 mM
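Also: bound reporter read as fluorescence of individual clusters on recovered sequencing chips by microscopy, with normalized cluster intensities fitted with a binding model.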

| Sequence | apparent KD of K4 kissing-loop reporter (input ligand: FMN 200 uM) [nM] | apparent KD of K4 kissing-loop reporter (input ligand: arginine 13.2 mM) [nM] | apparent KD of K4 kissing-loop reporter (input ligand: none) [nM] | apparent KD of K4 kissing-loop reporter [1] [nM] | apparent KD of K4 kissing-loop reporter [2] [nM] |
| --- | --- | --- | --- | --- | --- |
| AGUGUUAGGUUAGAUACCAGCCGUCCGUGGAUAACCCUCGGACCGCCAGUGAUGUUGGCAGGCCCUUGGCAGCUAACAGAACAGA [Beriisa] | 263 | 208 | 250 | 152 | 199 |
| AGUUCCGACGGAAGGAGCGGACAGUAUUGACGGAAAGGUGCAAGUGAUGUUUGCGCUUGUGUCCAGGUAGGUCGCCGUCGGAACA [Arg B SS t13] | 91.3 | 82.4 | 84.7 | 79.3 | 89.4 |
| AGUUCUUGCCGAAGGAGCGAGGCAGAGUGAUGUUCUGCAAGAGGUCGAAAGACCUCUCUGCCUCAGGUAGGUCGCGGCAUGAACA [Omei KL Arginine B Exc A v3] | 517 | 239 | 483 | 356 | 535 |
| AUACGUUUUUGUGAUACCAGACAUGUGAGUGAUGUUUACAUAUAUAUUUAAUAUUUAGCUGUCCCUUGGCAGCACUGUUUAUUUA [JR_ExcTheophyB_Sub004] | 362 | 382 | 420 | 437 | 301 |
| AUAGGAGUGAUGUUCCUUAGUUUCUCCGAUACCAGUAUGGAAACAUACCCUUGGCAGCGGGAAACCGCAGAUUAGGAAACUAGUC [Theophylline A K4 6] | 208 | 200 | 210 | 210 | 194 |
| AUAUUAACUCAGUGAUGUUGAGUUGACGAAGGAGCGCUAGAGAUAGCAGGUAGGUCGCGUCAAUUUAAUGGAGACUAGCUUUACG [Arg A Ex t4] | 343 | 297 | 365 | 351 | 307 |
| AUAUUUAUUUAGUCACUUUUCAUAUUAUGUCAGGAUAUCGUAUUUUCGAGAAGGGACUCAUGCUAGUGAUGUUAGCUAUUUCUCA [JR_Nu3_ExcFMNA_Sub022] | 104 | 170 | 141 | 162 | 111 |
| AUCAGCCUCAGAAGGAGCGUGAGUUUUAAGAGGCUGGAGUGAUGUUCCAGACAUAACGACUCACAGGUAGGUCGCUGAGACUAGU [Arg B SS t1] | 132 | 99.8 | 121 | 98.5 | 114 |
| AUCAUAUCUAGUCAGCCCAGUGAUGUUGGGCGAGGACCGGUACGGCCGCCACUCGCUUCGUUGCGGUGGCUGGCGUUACGACAAA [Inveusma] | 130 | 142 | 150 | 142 | 137 |
| AUGACAGAAUCGGCCGCCACUCAUUGUCCUGUGGACAUUCUAGGAUUAGUGAUGUUUUUCCCAUCGAGGACCGGGAUACAGAUUG [theeternabot_sameState_KL_Trp_B_6] | 675 | 267 | 467 | 398 | 519 |
| AUGCGCGCGGCGGCCGCCACUCGCAUGAGAGUGAUGUUCUCGCCGUGCCCGUAAGGGCGCGGUGUGAGGACCGGGCCGGGCUGCG [#2 Same State - Tryptophan B Attempt #21 (HarryS)] | 70.8 | 66.3 | 400 | 319 | 131 |
| AUGGGUUUGGGAGGAUAUCCUUCCCACGUCGAAGUACCGUGCUUGAUGGAGUGAUGUUCGAUCAGAGGAGAAGGCCCGGAUUUAU [Same State FMN B GF21] | 754 | 612 | 845 | 806 | 536 |
| AUGGUUGUCGUAGGAUAUGUAGGAUAUUCCUAUAGCAGUGAUGUUGCUAAUAUCAAUGGAAGAAGGACAGAAGGACGAUAACCAC [KL-SSFMN-B3 #analogue #DoubleAptamer] | 113 | 120 | 113 | 118 | 113 |
| AUUAAUAACUGAGGAUAUCGUUUUACUGUAGUGAUGUUACAGAAAAUUCACAUUAUAAUUUCUAUUCGAGAAGGCAGAAUAAUUA [JR_ExcFMNB_Sub014] | 106 | 74.6 | 65.2 | 71.9 | 65.1 |
| AUUAAUUUCAGAGGAUAUCGUGAUUUUGUUUAAUUUAUUCAUUUGUGCAGUGAUGUUGCUAAUAUUCGAGAAGGCUGAUUUAUAA [whbob_Ex_FMNB__2th225] | 161 | 134 | 63.3 | 132 | 53.3 |
| AUUGUCGGAGUCUGUGCUGACUGACGAGCAAAGGAUAUGUUAUUAAACAGAAGGUUGUGCUGCUUAAGUGAUGUUUUUGGAGCUA [theeternabot_sameState_KL_FMN_A_26] | 308 | 190 | 239 | 228 | 216 |

| Sequence | apparent KD of K4 kissing-loop reporter (input ligand: FMN 200 uM) [nM] | apparent KD of K4 kissing-loop reporter (input ligand: arginine 13.2 mM) [nM] | apparent KD of K4 kissing-loop reporter (input ligand: none) [nM] | apparent KD of K4 kissing-loop reporter [1] [nM] | apparent KD of K4 kissing-loop reporter [2] [nM] |
| --- | --- | --- | --- | --- | --- |
| AUUUAUUACAGAAGGAGCGUGUAUUUAUAAUCAUUUAUCUUAGCGAGUGAUGUUCGCUUUACACAGGUAGGUCGCUGUUUAUUUA [JR_Nu_ExcArginiB_Sub027] | 110 | 128 | 120 | 133 | 90.2 |
| AUUUUUAACUGAGGAUAUCGAAUUUAUGUAGUGAUGUUACUUUAAAUUAAAAUUUUAAUUUCUUAACGAGAAGGCAGAAUAAUUA [JR_SSFMNB_Sub025] | 111 | 194 | 109 | 204 | 85.4 |
| AUUUUUUACAGAAGGAGCGUGUUUUUAUAAUCAUUUAUCUUAGCGAGUGAUGUUCGCUUUACACAGGUAGGUCGCUGUUUAUUUA [JR_Nu_ExcArginiB_Sub028] | 119 | 130 | 121 | 121 | 85.7 |
| CAACCGUAACACGAUACCAGCCUAGAAGCCAGUGAUGUUGGCCUUUUUUCGGAAAUGAAAGGCCCUUGGCAGCGUGGAUGAACUG [Dibibiquus] | 468 | 304 | 380 | 462 | 338 |
| CAACUACCCGGAAGGAGCGCGGGUGUAAAUCAAAGGGCUUGAGUGAUGUUCAAGCGGAACCCGCAGGUAGGUCGCCGGGAAGCCC [Quaneson] | 113 | 114 | 119 | 114 | 122 |
| CAAGGGCAAGUCGAUACCAGAGACACAUACCCGCAGUGAUGUUGCAGGAAACAGUUACUUCUCCCUUGGCAGCGAAUGCGACUUC [theeternabot_sameState_KL_Theo_B_45] | 348 | 313 | 344 | 309 | 332 |
| CACGCCUGUUGUCUGGUAGACAGAUCAGAUACCAGACAUAGUGAUGUCCCUUGGCAGCUGAACAUCCAGUGAUGUUGGAUGCGUU [Theo A SS t11] | 447 | 333 | 446 | 394 | 371 |
| CAGAACAUAUAUAGAAACUAUAUAUGAGAUACCAGUCAAAUUAAAGACCCUUGGCAGCUCAGGCGAGUGAUGUUCGCAGGCUAAC [Astros-Gfrank-modulation#2] | 95.9 | 109 | 102 | 122 | 88.3 |
| CAUAGGAAACUAUGUAUCUCUCCGACUGAAGGAGCGCGUGAAAACGCAGGUAGGUCGCAGAAUUUAACGGAGAGUGAUGUUCUCU [Ex Arginine A K4 10] | 345 | 295 | 338 | 385 | 344 |
| CAUAGGAAACUAUGUAUCUCUCUUACUGAAGGAGCGCGUGAAAACGCAGGUAGGUCGCAGAAUUUAAUAGAGAGUGAUGUUCUCU [Ex Arginine A K4 7] | 239 | 202 | 254 | 244 | 208 |
| CAUGGUGCUCGCCAGUUGUGCGAACGGUGGGAGGAUAUGUCGCGAGACAGAAGGCCCAGUGAUGUUGGGCAGGCUCGUAGAUCGA [Mazadi] | 158 | 113 | 129 | 165 | 127 |
| CCAUCGCUAUUCGAUACCAGCUACUUAGUGAUGUUAAGUUUUUAUCCACUGUAGGUGGAAAGCCCUUGGCAGCGAAUAGUGAUGG [Theophylline B K4 26] | 442 | 357 | 474 | 234 | 417 |
| CCAUUCUGUUACGAUACCAGUCAAAGAUAUUUGAUCAAUACCCUCGCCGAGUGAUGUUCGGACCCUUGGCAGCGUCUGGGACAGG [fdxxvmullin] | 1320 | 437 | 558 | 427 | 550 |
| CCCAGUGAUGUUGGUUAAUAUAUUGAUUAACGAGGACCGGUACGGCCGCCACUCGAUAUUUCUAUAAUUAAAAGUUUUGUUUAAA [JR_SSTryptoA_Sub001] | 459 | 426 | 435 | 417 | 327 |
| CCGCGGCAAGCUCCGGAACCCAUAUUCGAUACCAGCCUUAUCACGGGCCCUUGGCAGCGAGCGUUAGUGAUGUUAGCGGCAUGGU [theeternabot_sameState_KL_Theo_A_27] | 528 | 256 | 311 | 276 | 384 |
| CCGGAGGAAGUCGCUUUUCCUGUGGCAUAGAAGGAUAUCCAAUUAAGGAGAAGGUCUAUCUGCCUUAGUGAUGUUAGGAAGUAGA [theeternabot_sameState_KL_FMN_A_23] | 172 | 89.1 | 135 | 162 | 167 |
